According to article PMC9671922, “TOPOVIBL-REC114 interaction regulates meiotic DNA double-strand breaks” (Nature Communications, 2022):

B1: TOPOVIBL^559–576 peptide (peptide)
peptide: EDLWLQEVSNLSEWLNPG
notes: also called TOPOVIBL peptide; TOPOVIBL C-terminal peptide
B2: 6xHis-TOPOVIBL C-terminal domain (CTD; 452–579) (domain or fragment, mouse, UniProt J3QMY9 452-579, looked up)
chain: SCDTEQHLTPEKNISAQNTKDQHKNIAQEFPEESIGQAENKRPKRGSPNHGREESRVLGSARDRSPPKSATRDRELTEVSLTARGSQTQAAHGRAQAAEAASPAGGLEDLWLQEVSNLSEWLNPGHRS
notes: Cloned in pProEXHTb; also called TOPOVIBL CTD; source: E. coli BL21Gold (DE3), purified (Ni-Chelating Sepharose, Superdex 200)

Molecular target: T1, REC114^15–159 (REC114 PH domain) (mouse, UniProt Q9CWH4 15-159)
T1 construct: Expressed from pProEXHTb; His-tag cleaved with TEV protease; source: E. coli BL21-Gold (DE3), purified (Ni2+ resin, TEV cleavage, second Ni2+ column, Superdex 200)
T1 sequence (looked up): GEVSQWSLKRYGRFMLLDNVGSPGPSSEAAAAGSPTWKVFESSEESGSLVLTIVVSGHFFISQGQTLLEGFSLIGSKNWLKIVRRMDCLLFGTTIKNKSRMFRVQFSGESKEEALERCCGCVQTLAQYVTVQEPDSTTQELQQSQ
Test: ITC; 25 °C, ITC200; 0.3-1.8 mM TOPOVIBL injected into 30-40 µM REC114 in the cell; 20 mM Tris pH 8.0, 100 mM NaCl, 5% glycerol, 5 mM β-mercaptoethanol; one-site model
Conditions: both partners purified

Binder	Kd [nM]
B1	3300
B2	1200
